In patent US10450368 (DUKE UNIVERSITY, dated 2019) one finds AtheNA signal, Kd and koff data, which are given here for three molecules.

By Kd is commonly meant the free concentration of one partner at which half of the binding sites on the other are occupied at equilibrium, for simple one-to-one binding. What is called koff is the rate constant with which the complex falls apart. A lower koff goes with a long-lived complex.

The target in assay [1] is T1, Scl-70 (UniProt P11387 1-765).
T1 sequence: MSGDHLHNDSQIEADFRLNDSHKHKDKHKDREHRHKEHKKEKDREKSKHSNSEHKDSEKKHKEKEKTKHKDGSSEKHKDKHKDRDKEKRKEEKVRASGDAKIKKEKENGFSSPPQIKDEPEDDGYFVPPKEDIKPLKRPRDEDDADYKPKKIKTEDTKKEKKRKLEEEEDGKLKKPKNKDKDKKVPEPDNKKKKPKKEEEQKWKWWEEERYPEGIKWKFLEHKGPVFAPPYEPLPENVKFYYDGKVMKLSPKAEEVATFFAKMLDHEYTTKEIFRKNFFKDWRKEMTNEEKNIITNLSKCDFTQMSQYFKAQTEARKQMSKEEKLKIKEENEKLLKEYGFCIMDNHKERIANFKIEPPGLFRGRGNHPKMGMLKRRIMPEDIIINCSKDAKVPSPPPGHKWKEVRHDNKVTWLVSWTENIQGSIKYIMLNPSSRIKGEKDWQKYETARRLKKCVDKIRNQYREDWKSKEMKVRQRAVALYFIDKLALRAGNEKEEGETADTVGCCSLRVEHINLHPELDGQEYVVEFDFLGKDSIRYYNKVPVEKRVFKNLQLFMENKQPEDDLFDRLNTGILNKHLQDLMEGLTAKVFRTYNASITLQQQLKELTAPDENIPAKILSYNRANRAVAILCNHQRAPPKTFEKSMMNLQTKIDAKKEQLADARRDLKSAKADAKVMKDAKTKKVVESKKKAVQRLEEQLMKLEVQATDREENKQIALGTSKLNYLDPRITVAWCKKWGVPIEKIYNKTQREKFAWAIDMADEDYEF
Nature of the assay: AtheNA, Ab 25 ug/ml.

The target of assay [2] is T2, SSA.
T2 construct: also called SSA (Ro)
Nature of the assay: AtheNA, Ab 25 ug/ml.

In assay [3] the target is T3, Centromere B (UniProt P07199 1-599).
T3 construct: also called Cent B
T3 sequence: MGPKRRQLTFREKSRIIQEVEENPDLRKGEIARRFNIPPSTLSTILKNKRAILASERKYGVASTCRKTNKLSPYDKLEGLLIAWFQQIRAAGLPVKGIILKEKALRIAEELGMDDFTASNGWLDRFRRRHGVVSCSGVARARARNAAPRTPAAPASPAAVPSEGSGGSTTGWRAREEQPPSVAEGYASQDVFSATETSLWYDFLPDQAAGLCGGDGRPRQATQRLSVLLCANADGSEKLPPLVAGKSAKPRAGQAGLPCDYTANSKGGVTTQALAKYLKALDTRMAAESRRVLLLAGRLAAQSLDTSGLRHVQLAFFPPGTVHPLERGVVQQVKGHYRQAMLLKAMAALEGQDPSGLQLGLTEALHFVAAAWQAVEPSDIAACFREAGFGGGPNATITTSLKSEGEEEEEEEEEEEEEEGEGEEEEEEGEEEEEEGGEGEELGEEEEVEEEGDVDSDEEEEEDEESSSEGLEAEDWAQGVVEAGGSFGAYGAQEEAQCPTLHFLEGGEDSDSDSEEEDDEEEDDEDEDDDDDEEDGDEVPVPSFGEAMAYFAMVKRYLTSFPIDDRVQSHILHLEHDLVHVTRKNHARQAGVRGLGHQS
As to the kind of experiment: AtheNA, Ab 25 ug/ml.

Assay [4] addresses T4, Jo-1 (UniProt P12081 1-509).
T4 sequence: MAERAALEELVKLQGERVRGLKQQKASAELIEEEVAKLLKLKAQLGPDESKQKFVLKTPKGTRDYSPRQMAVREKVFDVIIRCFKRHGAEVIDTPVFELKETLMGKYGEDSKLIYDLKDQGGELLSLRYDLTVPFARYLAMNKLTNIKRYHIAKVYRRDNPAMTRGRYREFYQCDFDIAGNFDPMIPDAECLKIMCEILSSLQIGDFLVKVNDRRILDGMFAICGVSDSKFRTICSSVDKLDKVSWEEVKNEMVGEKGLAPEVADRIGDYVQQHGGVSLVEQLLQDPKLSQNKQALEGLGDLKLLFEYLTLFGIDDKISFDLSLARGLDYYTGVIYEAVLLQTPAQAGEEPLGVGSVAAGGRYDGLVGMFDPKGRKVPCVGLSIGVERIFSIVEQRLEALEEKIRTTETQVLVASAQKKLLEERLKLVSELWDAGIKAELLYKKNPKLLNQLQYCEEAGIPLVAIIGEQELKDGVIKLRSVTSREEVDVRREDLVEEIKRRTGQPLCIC
As to the kind of experiment: AtheNA, Ab 25 ug/ml.

In assay [5] the target is T5, RNP (ribonucleoprotein).
T5 construct: Protein-RNA complex
As to the kind of experiment: AtheNA, Ab 6.25 ug/ml.

Assay [6] has as its target T1, Scl-70. As to the kind of experiment: AtheNA, Ab 6.25 ug/ml.
Another assay concerns the target T6, Histones.
T6 construct: Mixture of proteins
Nature of the assay: AtheNA, Ab 6.25 ug/ml.

Another assay concerns the target T7, SSB (UniProt P05455 1-408).
T7 sequence: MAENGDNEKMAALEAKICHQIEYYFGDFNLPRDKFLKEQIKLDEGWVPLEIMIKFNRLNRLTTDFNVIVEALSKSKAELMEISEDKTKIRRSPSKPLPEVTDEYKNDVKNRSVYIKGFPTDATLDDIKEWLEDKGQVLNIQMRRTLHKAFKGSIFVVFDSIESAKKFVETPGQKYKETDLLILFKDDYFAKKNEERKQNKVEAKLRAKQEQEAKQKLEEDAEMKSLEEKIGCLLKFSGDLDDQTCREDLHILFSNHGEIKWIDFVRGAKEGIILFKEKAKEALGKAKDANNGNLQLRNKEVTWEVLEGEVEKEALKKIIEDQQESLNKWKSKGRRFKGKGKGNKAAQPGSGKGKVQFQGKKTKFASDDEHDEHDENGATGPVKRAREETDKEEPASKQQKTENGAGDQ
Nature of the assay: AtheNA, Ab 6.25 ug/ml.

Assay [7] deals with T2, SSA. As to the kind of experiment: AtheNA, Ab 6.25 ug/ml.
Assay [8] has as its target T3, Centromere B. As to the kind of experiment: AtheNA, Ab 6.25 ug/ml.
Another assay has as its target T8, Sm (Smith antigen).
T8 construct: Protein complex
Nature of the assay: AtheNA, Ab 6.25 ug/ml.

Assay [9] has as its target T4, Jo-1. As to the kind of experiment: AtheNA, Ab 6.25 ug/ml.
Assay [10] deals with T9, HIV-1 CH505 transmitted/founder gp120 Env (HIV-1).
T9 construct: domain: gp120; also called CH505.TF gp120; CH505 TF gp120 Env
As to the kind of experiment: SPR, antibody captured on anti-human Ig Fc, gp120 injected.

The target of assay [11] is T5, RNP (ribonucleoprotein). As to the kind of experiment: AtheNA, Ab 50 ug/ml.
From the text: AtheNA Multi-Lyte ANA Plus Test System is one such assay. This is luminex-based assay, which is also used to screen patient sera.

B1: CH557 (antibody, V domains shown)
VH: QVRLAQYGGGVKRLGATMTLSCVASGYTFNDYYIHWVRQAPGQGFELLGYIDPANGRPDYAGALRERLSFYRDKSMETLYMDLRSLRYDDTAMYYCVRNVGTAGSLLHYDHWGSGSPVIVSS
VL: EIVLTQSPATLSASPGERVTLTCRASRSVRNNVAWYQHKGGQSPRLLIYDASTRAAGVPARFSGSASGTEFTLAISNLESEDFTVYFCLQYNNWWTFGQGTRVDIK
notes: also called CH235.12; CH557_4A/293i
For B1, the AtheNA signal with Scl-70 [1] is 4 relative luminescence units; with SSA [2], 4 relative luminescence units; with Centromere B [3], 25 relative luminescence units; with Jo-1 [4], 2 relative luminescence units; with RNP (ribonucleoprotein) [5] it was 4 relative luminescence units; in the assay with Scl-70 [6] it was 3 relative luminescence units. The AtheNA signal with Histones was 4 relative luminescence units; in the assay with SSB, 5 relative luminescence units; with SSA [7], 4 relative luminescence units; with Centromere B [8], 11 relative luminescence units; with Sm (Smith antigen) it was 4 relative luminescence units; with Jo-1 [9] it was 5 relative luminescence units.

B2: CH241 (antibody, V domains shown)
VH: QVQLVQSGAAVKKPGASVRVSCKASGYTFTSSHIHWVRQAPGQGPEWMGMIDPSVGRPTTAGKFQGRVTMTRDRYTSTAYMDLSSLRSEDTAVYYCARSVETTGSLLYFDYWGQGTLITVSS
VL: EIVLTQSPATLSVSPGERATLSCRASQSVRSNIAWYQQKPGQAPRLLIHGASTRATGIPGRFSGSGSGPEFTLAISSVQSEDFAVYYCQQYNDWWTFGQGTKVEIK
Turning to B2, in assay [10], binding was put at a Kd of 0.7 nM and the dissociation rate constant (koff) turned out to be 0.00033 s⁻¹.

B3: CH493 (antibody, V domains shown)
VH: QVRLLQYGGGVKRPGASMTISCVASGYNFNDYYIHWVRQAPGQGLELMGWIDPSGGRTDYAGAFGDRVSMYRDKSMNTLYMDLRSLRSGDTAMYYCVRNVGTAGSLLHYDHWGLGVMVTVSS
VL: EIVLTQSPATLSVSPGERVTLSCRASQSVRNNLAWYRQKRGQAPRLLIYGASTRATGIPARFSGSGSGTEFTLTISSMQSEDFAVYYCQQYNNWWTFGQGTKVEIK
notes: also called CH235.9; DH493
In the case of B3, in the assay with RNP (ribonucleoprotein) [11], the AtheNA signal worked out at 69.
